From article PMC10909783

Key:
Assay in all cases: BLI
LGP2 WT (Mus musculus) = details: 3'-biotin, BLI and EMSA: 20 mM Hepes pH 7.4, 0.15 M KCl, 1 mM TCEP, EMSA 15 min at 4 C with 1 uM protein and 100 ng nucleic acid, BLI with 0.1 or 1 uM protein …
LGP2 K30G (Mus musculus) = details: no ATP stated; 3'-biotin; BLI and EMSA: 20 mM Hepes pH 7.4, 0.15 M KCl, 1 mM TCEP; EMSA 15 min at 4 C with 1 uM protein and 100 ng nucleic acid; BLI with 0.1 or 1 uM protein …
[1] = biological target: MDA5 WT (dL2);LGP2 WT del646-663 (Mus musculus;Mus musculus) (UniProt Q8R5F7); details: MDA5-LGP2 mixture, apparent Kd; 3'-biotin; BLI and EMSA: 20 mM Hepes pH 7.4, 0.15 M KCl, 1 mM TCEP; EMSA 15 min at 4 C with 1 uM protein and 100 ng nucleic …; BLI with 0.1 or 1 uM protein, temperature
[2] = biological target: T1, MDA5 WT (dL2) del646-663 (Mus musculus) (UniProt Q8R5F7); details: 3'-biotin, BLI and EMSA: 20 mM Hepes pH 7.4, 0.15 M KCl, 1 mM TCEP, EMSA 15 min at 4 C with 1 uM protein and 100 ng nucleic acid, BLI with 0.1 or 1 uM protein …
T1 sequence: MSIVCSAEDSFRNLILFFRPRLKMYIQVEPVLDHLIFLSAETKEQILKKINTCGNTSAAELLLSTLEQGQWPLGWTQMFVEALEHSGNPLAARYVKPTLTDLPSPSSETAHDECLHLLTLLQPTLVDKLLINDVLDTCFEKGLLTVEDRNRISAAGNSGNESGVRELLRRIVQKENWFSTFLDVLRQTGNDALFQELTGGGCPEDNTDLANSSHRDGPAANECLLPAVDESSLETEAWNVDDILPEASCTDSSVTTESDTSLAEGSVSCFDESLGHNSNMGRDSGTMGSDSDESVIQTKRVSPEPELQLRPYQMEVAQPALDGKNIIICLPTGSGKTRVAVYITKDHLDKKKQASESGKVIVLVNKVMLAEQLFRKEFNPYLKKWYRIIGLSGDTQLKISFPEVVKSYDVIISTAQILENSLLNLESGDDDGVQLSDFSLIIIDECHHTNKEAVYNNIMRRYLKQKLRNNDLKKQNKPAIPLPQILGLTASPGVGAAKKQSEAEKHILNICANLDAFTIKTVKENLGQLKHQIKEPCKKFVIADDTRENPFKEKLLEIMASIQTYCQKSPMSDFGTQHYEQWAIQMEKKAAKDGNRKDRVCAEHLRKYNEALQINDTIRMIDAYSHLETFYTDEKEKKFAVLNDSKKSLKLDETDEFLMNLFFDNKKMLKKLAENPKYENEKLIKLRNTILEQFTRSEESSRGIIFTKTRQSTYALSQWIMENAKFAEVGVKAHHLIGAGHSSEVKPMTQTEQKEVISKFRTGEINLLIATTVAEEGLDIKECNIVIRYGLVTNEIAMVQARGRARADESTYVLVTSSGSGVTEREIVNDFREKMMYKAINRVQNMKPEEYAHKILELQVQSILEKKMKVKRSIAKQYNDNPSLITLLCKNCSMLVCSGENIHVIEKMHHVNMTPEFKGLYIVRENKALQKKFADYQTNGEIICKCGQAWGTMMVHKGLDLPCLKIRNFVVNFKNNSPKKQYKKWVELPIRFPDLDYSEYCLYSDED

[3] = biological target: MDA5 WT (dL2);LGP2 K30G del646-663 (Mus musculus;Mus musculus) (UniProt Q8R5F7); details: MDA5-LGP2 K30G mixture; 3'-biotin; BLI and EMSA: 20 mM Hepes pH 7.4, 0.15 M KCl, 1 mM TCEP; EMSA 15 min at 4 C with 1 uM protein and 100 ng nucleic acid; BLI with 0.1 or 1 uM protein …

1-kb dsRNA, 3'-biotin
Kd (LGP2 WT (Mus musculus)): 48 nM | Kd (LGP2 WT (Mus musculus); no ATP stated): 70 nM | Kd (LGP2 K30G (Mus musculus)): 1300 nM | Kd [1]: 520 nM | Kd ([2]; no ATP stated): 1300 nM

40-nt ssRNA, 3'-biotin
Kd [2]: 2600 nM | Kd [3]: 1840 nM

300-bp dsRNA, 3'-biotin
Kd [2]: 1310 nM
